From EP4674870A1 (Sunshine Guojian Pharmaceutical (Shanghai) Co., Ltd., dated 2026)

T1: human TL1A-His protein (human, UniProt O95150 72-251)
T1 construct: also called human TL1A extracellular domain (TL1A-ECD) with 6×His tag
T1 sequence: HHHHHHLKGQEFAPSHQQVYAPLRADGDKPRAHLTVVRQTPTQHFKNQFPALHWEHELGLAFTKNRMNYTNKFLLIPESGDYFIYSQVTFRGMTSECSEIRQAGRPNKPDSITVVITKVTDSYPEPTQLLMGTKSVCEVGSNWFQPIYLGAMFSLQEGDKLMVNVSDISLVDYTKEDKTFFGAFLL


Tests used:
human TL1A-His protein [1] = biological target: T1, human TL1A-His protein; test: SPR (Biacore 8K), antibody captured on Protein A chip, TL1A-his as analyte
human TL1A-His protein [2] = biological target: T1, human TL1A-His protein; test: ELISA

| Molecule | Kd (human TL1A-His protein [1]) | koff (human TL1A-His protein [1]) | kon (human TL1A-His protein [1]) | binding result (human TL1A-His protein [2]) |
| --- | --- | --- | --- | --- |
| positive control antibody PRA023 | 0.537 nM | 0.000166 s⁻¹ | 308000 M⁻¹ s⁻¹ | – |
| 311V25 (antibody, human IgG1, kappa, L234A L235A, V domains shown) VH: EVQLVESGGGLVQPGGSLKLSCAASGFTFSNYWMNWVRQASGKGLEWVGGIRLKSNNYATQYAESVKGRFTISRDDSKNTAYLQMNSLKTEDTAVYYCTPLLLNGMDYWGQGTTVTVSS VL: EIVLTQSPDFQSVTPKEKVTITCSASSSVSYMHWYQQKPDQSPKLWIYDTSNLASGVPSRFSGSGSGTDFTLTINSLEAEDAATYYCFQESGYPFTFGQGTKLEIKR | – | – | – | binds |
| 311V25-7 (antibody, human IgG1, kappa, L234A L235A, V domains shown) VH: EVQLVESGGGLVQPGGSLKLSCAASGFTFSNYWMNWVRQASGKGLEWVGGIRLKSNNYATQYAESVKGRFTISRDDSKNTAYLQMNSLKTEDTAVYYCTPLLLSGMDYWGQGTTVTVSS VL: EIVLTQSPDFQSVTPKEKVTITCSASSSVSYMHWYQQKPDQSPKLWIYDTSNLASGVPSRFSGSGSGTDFTLTINSLEAEDAATYYCFQESGYPFTFGQGTKLEIKR | – | – | – | binds |
| humanized antibody 31122 (antibody, human IgG1, kappa, L234A L235A, V domains shown, Humanized from 311C9E10; human IgG1/kappa) VH: EVQLVESGGGLVQPGGSLKLSCAASGFTFSNYWMNWVRQASGKGLEWVGGIRLKSNNYTTQYAESVKGRFTISRDDSKNTAYLQMNSLKTEDTAVYYCTPLLLNGMDYWGQGTTVTVSS VL: EIVLTQSPDFQSVTPKEKVTITCSASSSVSYMHWYQQKPDQSPKLWIYDTSNLASGVPSRFSGSGSGTDFTLTINSLEAEDAATYYCFQESGYPFTFGQGTKLEIKR | 0.394 nM | 0.000159 s⁻¹ | 405000 M⁻¹ s⁻¹ | – |
| 311V34 (antibody, human IgG1, kappa, L234A L235A, V domains shown) VH: EVQLVESGGGLVQPGGSLKLSCAASGFTFSNYWMNWVRQASGKGLEWVGGIRLKSNNYRTQYAESVKGRFTISRDDSKNTAYLQMNSLKTEDTAVYYCTPLLLNGMDYWGQGTTVTVSS VL: EIVLTQSPDFQSVTPKEKVTITCSASSSVSYMHWYQQKPDQSPKLWIYDTSNLASGVPSRFSGSGSGTDFTLTINSLEAEDAATYYCFQESGYPFTFGQGTKLEIKR | – | – | – | binds |

Results, then the molecule that gave them:

| Kd (human TL1A-His protein [1]) | koff (human TL1A-His protein [1]) | kon (human TL1A-His protein [1]) | binding result (human TL1A-His protein [2]) | Molecule |
| --- | --- | --- | --- | --- |
| 0.212 nM | 0.000212 s⁻¹ | 1e+06 M⁻¹ s⁻¹ | – | humanized antibody 72851 (antibody, human IgG1, kappa, L234A L235A, V domains shown, Humanized from 728H4D9; human IgG1/kappa) VH: QVQLVQSGAEVKKPGASVKVSCKASGYSFTGYTMNWVRQAPGQNLEWIGLINPYSGGTNYNQKFKGRATLTVDTSISTAYMELSRLRSDDTAVYYCASIYQRHDGIAYWGQGTLVTVSS VL: EIVLTQSPDFQSVTPKEKVTITCSASSSVNYMHWYQQKPDQSPKLLIKDTSKLASGVPSRFSGSGSGTDFTLTINSLEAEDAATYYCQQWSSSPYTFGGGTKVEIKR |
| – | – | – | binds | 311V34-7 (antibody, human IgG1, kappa, L234A L235A, V domains shown) VH: EVQLVESGGGLVQPGGSLKLSCAASGFTFSNYWMNWVRQASGKGLEWVGGIRLKSNNYRTQYAESVKGRFTISRDDSKNTAYLQMNSLKTEDTAVYYCTPLLLSGMDYWGQGTTVTVSS VL: EIVLTQSPDFQSVTPKEKVTITCSASSSVSYMHWYQQKPDQSPKLWIYDTSNLASGVPSRFSGSGSGTDFTLTINSLEAEDAATYYCFQESGYPFTFGQGTKLEIKR |
| – | – | – | binds | 311V31-7 (antibody, human IgG1, kappa, L234A L235A, V domains shown) VH: EVQLVESGGGLVQPGGSLKLSCAASGFTFSNYWMNWVRQASGKGLEWVGGIRLKSNNYKTQYAESVKGRFTISRDDSKNTAYLQMNSLKTEDTAVYYCTPLLLSGMDYWGQGTTVTVSS VL: EIVLTQSPDFQSVTPKEKVTITCSASSSVSYMHWYQQKPDQSPKLWIYDTSNLASGVPSRFSGSGSGTDFTLTINSLEAEDAATYYCFQESGYPFTFGQGTKLEIKR |
| – | – | – | binds | 311V31 (antibody, human IgG1, kappa, L234A L235A, V domains shown) VH: EVQLVESGGGLVQPGGSLKLSCAASGFTFSNYWMNWVRQASGKGLEWVGGIRLKSNNYKTQYAESVKGRFTISRDDSKNTAYLQMNSLKTEDTAVYYCTPLLLNGMDYWGQGTTVTVSS VL: EIVLTQSPDFQSVTPKEKVTITCSASSSVSYMHWYQQKPDQSPKLWIYDTSNLASGVPSRFSGSGSGTDFTLTINSLEAEDAATYYCFQESGYPFTFGQGTKLEIKR |
